Source: PMC4784741

Legend:
[1] = biological target: recombinant p31 Ii without cytoplasmic and transmembrane domain (and no inhibitory fragment) (human); assay: SDS-PAGE with Western blot; recombinant Ii isoforms separated by SDS-PAGE, blotted and labelled with anti-Ii (LN2) mAb; minor bands above the monomers
[2] = biological target: recombinant p41 Ii without cytoplasmic and transmembrane domain (with inhibitory p41 fragment included) (human); assay: as above
[3] = biological target: recombinant human cathepsin L (human)

Chain of recombinant p41 Ii without cytoplasmic and transmembrane domain (with inhibitory p41 fragment included) (domain or fragment) (P04233 73-296): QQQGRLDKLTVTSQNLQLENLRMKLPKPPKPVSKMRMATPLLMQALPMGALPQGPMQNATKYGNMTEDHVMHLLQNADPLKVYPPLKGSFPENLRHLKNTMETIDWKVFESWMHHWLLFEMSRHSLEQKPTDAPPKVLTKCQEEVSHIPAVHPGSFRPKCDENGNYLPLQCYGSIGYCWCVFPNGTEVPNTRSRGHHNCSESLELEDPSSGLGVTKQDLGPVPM

With “recombinant p31 Ii without cytoplasmic and transmembrane domain (and no inhibitory fragment) (domain or fragment)” as the substance, how does the stoichiometry N [1] read?
The stoichiometry N was 2.

How did the stoichiometry N [2] turn out when “recombinant p41 Ii without cytoplasmic and transmembrane domain (with inhibitory p41 fragment included) (domain or fragment)” was run?
The stoichiometry N was 2.

Which active site titration: degradation of Z-Phe-Arg-AMC by cathepsin L (2.5 nM) with p41 fragment 0.5 nM to 3 nM; molar ratio at which the activity is abolished (molar ratio p41 fragment/cathepsin L) [3] does the source give for “p41 fragment of invariant chain p41 Ii (domain or fragment)” here?
The active site titration: degradation of Z-Phe-Arg-AMC by cathepsin L (2.5 nM) with p41 fragment 0.5 nM to 3 nM; molar ratio at which the activity is abolished (molar ratio p41 fragment/cathepsin L) was 1.
